This passage reports Counts/minute bound results from patent publication US20040092720A1 (US Dept. of Health and Human Services, published 2004).

In the first assay the target is T1, recombinant human IL-6 (human, UniProt P05231 30-212, labeled with radioactive iodine).
T1 construct: Labeled probe in solution, added to wells that carry the synthetic peptides; also called IL-6 ligand; Interleukin-6
The experiment in a line: radioiodinated IL-6 on peptide array. On the procedure: Synthetic peptide arrays were constructed in 96-well microtiter plates in accordance with the method set forth in WO 91/02714 (Saxinger), and used to test the binding of recombinant human IL-6 that had been labeled with radioactive iodine (radiolabeling by standard methods). After incubating the radiolabeled IL-6 ligand in a well with each synthetic peptide, a washing step was performed to remove unbound label, and the relative level of radioactivity remaining in each well of the plate was evaluated to determine the relative affinity of each peptide for IL-6 ligand.
On to PRSTPSLT [Peptide B14], for which the Counts/minute bound was determined as 930 counts/minute. On the same count and under the same terms, the same measure for RSTPSLTTKAVLLVRKFQNS [Peptide B18]: 13000 counts/minute. On to VRKFQNS (also called VRKFQNS) [Peptide B32], for which the Counts/minute bound is 1180 counts/minute. Regarding PRSTPSL (also called PRSTPSL) [Peptide B15], the Counts/minute bound was determined as 985 counts/minute. In the case of TPSLTTKAVLLVRKFQNS [Peptide B20], the Counts/minute bound was 12900 counts/minute.

Turning to LTTKAVLLVRKFQNS [Peptide B23], the Counts/minute bound is 12200 counts/minute. On the same count and under the same terms, the same measure for KAVLLVRKFQNS [Peptide B27]: 5600 counts/minute; for LVRKFQNS [Peptide B31]: 2520 counts/minute. Same read-out and setting: with PRSTPSLTTKA [Peptide B11] the figure was 1240 counts/minute. On the same count and under the same terms, the same measure for PSLTTKAVLLVRKFQNS [Peptide B21]: 13300 counts/minute; for LLVRKFQNS [Peptide B30]: 7200 counts/minute; for TTKAVLLVRKFQNS [Peptide B24]: 7010 counts/minute. As to PRSTPS (also called PRSTPS) [Peptide B16], the Counts/minute bound came to 1020 counts/minute. The same measure, in the same setting: with STPSLTTKAVLLVRKFQNS [Peptide B19] the figure was 12200 counts/minute. In the case of VLLVRKFQNS [Peptide B29], the Counts/minute bound worked out at 9100 counts/minute. For the molecule AVLLVRKFQNS [Peptide B28], the Counts/minute bound worked out at 9070 counts/minute. Still for that read-out and setting: with PRSTPSLTTK [Peptide B12] the figure was 1310 counts/minute; with PRSTPSLTT [Peptide B13], 1050 counts/minute.

Another assay has as its target T1, recombinant human IL-6. In words: radioiodinated IL-6 on peptide array. The source holds these as a separate data set.
On to HFTIPKEQYTIINRTASSVTFTDI [Peptide E8], for which the Counts/minute bound was 1140 counts/minute.

Take DCKAKRDTPTSCTVDYSTVYFVNI [Peptide E18]: the Counts/minute bound was 1550 counts/minute. Same read-out and setting: the same measure for HINFDPVYKVKPNPPHNLSVINSE [Peptide E22]: 1730 counts/minute; for SCTVDYSTVYFVNIEVWVEAENAL [Peptide E19]: 3320 counts/minute; for KLTWTNPSIKSVIILKYNIQYRTK [Peptide E25]: 10300 counts/minute.

Turning to KMRCEWDGGRETHLETNFTLKSEW [Peptide E15], the Counts/minute bound amounted to 1570 counts/minute. Consider INSEELSSILKLTWTNPSIKSVII [Peptide E24], for which the Counts/minute bound was 1010 counts/minute. In the case of FTDIASLNIQLTCNILTFGQLEQN [Peptide E10], the Counts/minute bound amounted to 3380 counts/minute. On the same count and under the same terms, the same measure for KSEWATHKFADCKAKRDTPTSCTV [Peptide E17]: 1410 counts/minute; for KPNPPHNLSVINSEELSSILKLTW [Peptide E23]: 1410 counts/minute; for QIPPEDTASTRSSFTVQDLKPFTE [Peptide E28]: 1200 counts/minute. Still for that read-out and setting: the same measure for TGELLDPCGYISPESPVVQLHSNF [Peptide E3]: 1300 counts/minute. Still for that read-out and setting: the same measure for SVIILKYNIQYRTKDASTWSQIPP [Peptide E26]: 2830 counts/minute; for ENALGKVTSDHINFDPVYKVKPNP [Peptide E21]: 1120 counts/minute. As to FVNIEVWVEAENALGKVTSDHINF [Peptide E20], the Counts/minute bound worked out at 1410 counts/minute. Take MLTLQTWVVQALFIFLTTESTGEL [Peptide E1]: the Counts/minute bound turned out to be 3360 counts/minute. For the molecule KEKCMDYFHVNANYIVWKTNHFTI [Peptide E6], the Counts/minute bound was determined as 1440 counts/minute. Still for that read-out and setting: the same measure for YRTKDASTWSQIPPEDTASTRSSF [Peptide E27]: 1160 counts/minute; for NANYIVWKTNHFTIPKEQYTIINR [Peptide E7]: 1330 counts/minute. Still for that read-out and setting: with HSNFTAVCVLKEKCMDYFHVNANY [Peptide E5] the figure was 1290 counts/minute; with ETHLETNFTLKSEWATHKFADCKA [Peptide E16], 1040 counts/minute. With NLSCIVNEGKKMRCEWDGGRETHL [Peptide E14], the Counts/minute bound is 1170 counts/minute. Regarding ISGLPPEKPKNLSCIVNEGKKMRC [Peptide E13], the Counts/minute bound turned out to be 1200 counts/minute. The same measure, in the same setting: with IINRTASSVTFTDIASLNIQLTCN [Peptide E9] the figure was 1630 counts/minute; with ALFIFLTTESTGELLDPCGYISPE [Peptide E2], 1530 counts/minute; with LEQNVYGITIISGLPPEKPKNLSC [Peptide E12], 1670 counts/minute. Regarding ISPESPVVQLHSNFTAVCVLKEKC [Peptide E4], the Counts/minute bound came to 1500 counts/minute.
